Test results: the DeepSol protein solubility set

Assay: soluble on expression in E. coli; label from the status in PepcDB or PDB records

Soluble on expression in E. coli, not soluble:
MGSDKIHHHHHHMIKITQVRDGGNHVTQSTLTLDAWVERMKEEVKTCPVTMFRSQLRHVLPGDHCEAADKLPKMMPAAEFRKTEGGQCMKAYNGLVELTVGPLAGRAEVEQVKREAWKLPQTRCAFMGASGHSVKILVAFTRPDNTLPLTRAEAEAFHAHAYIMAVKCYQPQLSFDIRPKEPFLEQYSRLSYDPDVLYRPDSVQFYLSQPMGMPDEMALHTEPAVSGQRPLERALGSYETADALSMLFEAALRQAYIDLDKPDPADEKSSYSWDTLLSQLALNCFRSGIPEEAVVSRARFRHFVRKPLELVRQVVRNVYSRRQDFGSKCALSREQQLSVLIAEFMKRRYEFRFNVQTGEAEFRERHSFCFRFQPVDKRALNSIALDAQAEGIPLWDRDISRYVYSNRVPVYNPLEDFLFNLPEWDGRDRIRPLAQTVPCDNPHWPELFHRWFLNMVAHWRGMDKRYANSVSPLLVGAQGTRKSTLFDFLKLYLA
MSQQHDYVIGKNAVIETLKSDRKLYKLWMAENTVKGQAQQVIELAKKQGITIQYVPRKKLDQMVTGQHQGVVAQVAAYEYAELDDLYKAAEEKNEQPFFLILDELEDPHNLGSIMRTADAVGAHGIVIPKRRAVGLTTTVAKASTGAIEHIPVARVTNLARTLEEMKERGIWVVGTDASAREDFRNMDGNMPLALVIGSEGKGMGRLVKEKCDFLIKLPMAGKVTSLNASVAAGLLMYEVYRKRNPVGE
MKVAIIACQKMVEMGCPGKEACVSCFKAINEKSGAFERYKDVELVAFTTCGGCPGRRFPMRVKLLKTAAGAEAIHIANCTFLQPECPYINFDEICKKLMEELEIPIVFGTHTLVKKGEVVCTCGDNKE
MRAEVKEICKALHLAYIADRFEEVRFETKEQFLRDVLALELSCCQEAKQARLIKKAKFRELKWLKDYEWSGHIHWPATTSREELCDLRFLERKQNVLLLGSPGTGKTHLATALGIQACQQGHEVRFFRVADLVAQLEEALKNGTLGRLKRSLDTCELLILDELGYVPFQKQGSELLFHIIADCYERKSVMVTSNLEFGQWNRVFGDNRLTAALVDRLVHHAHILAFTGESYRLRNALSAIQPSSASGLEP
MAHHHHHHMEAPAVYCVSDAAASLTMADDWIRGLSRQRHRSMCEVDAVFPVSRTRERTEMDEAETASSYSDSVTSVPTNRLQLHMMHRRRLYKQYAMDLSMWADTHSYYQLMMWCHDHHVFVHPTVEMVRHRSAFREHVFEVKEDVDAFTPLLAIPEDLIIGFKDANTESSDPSASTDDRNNLYDAKREAEFHKLNTGENSNADICQFFFASLGMIVSDLITAKSSPLTDPRHLFAELLSKVPTLQNAPYFDEEVVFDSNETCLADVLLQMIRNYINGGPLVNKVPLHELRWAVSVSLSHSTPLSIGAVRSIGIVPVVHLFPHGGTATNAYVVARTSRDKSAEKMAIFFREKFGYDFQGQANAKWIYVVPERPLKAGEAINLQVMAPVCEKDSEAEQMWRLSCGTVPESYMSSAQASARQEAATRFIVEQGEALWKASRAKRLL
QLFSNNLLQENAHKYVREVIGSIPNTQVIRDQLLEENNRKHIEVVLIGATVSPAQIDSAKTKLSSYGLSGVELNIKQGFGYEQEETDVNELKSVLLKDLYDNGEKIIRNQQRQIDSLRNVLNFYNRFSSMESEIAQELQ
PNILRGLLLGYSEKMVELEHKVEVMQPTIDAFDRIATANGSLCLTDAAKALQMRPKDFISFLSQKQWIYKRTGSAHYVGYQDKVQAGFLEHKVTEVTRGDGSNKITEQVRVTPKGLTRLSKLLGNNHV

Soluble on expression in E. coli, soluble:
MKPHFRNTVERMYRDTFSYNFYNRPILSRRNTVWLCYEVKTKGPSRPPLDAKIFRGQVYSELKYHPEMRFFHWFSKWRKLHRDQEYEVTWYISWSPCTKCTRDMATFLAEDPKVTLTIFVARLYYFWDPDYQEALRSLCQKRDGPRATMKIMNYDEFQHCWSKFVYSQRELFEPWNNLPKYYILLHIMLGEILRHSMDPPTFTFNFNNEPWVRGRHETYLCYEVERMHNDTWVLLNQRRGFLCNQAPHKHGFLEGRHAELCFLDVIPFWKLDLDQDYRVTCFTSWSPCFSCAQEMAKFISKNKHVSLCIFTARIYDDQGRCQEGLRTLAEAGAKISIMTYSEFKHCWDTFVDHQGCPFQPWDGLDEHSQDLSGRLRAILQNQEN
MTENKGIMLAKSVQKHAGRAKEKILQNLGKVDRTADEIFDDHLNNFNRQQASANRLQKEFNNYIRCVRAAQAASKTLMDSVCEIYEPQWSGYDALQAQTGASESLWADFAHKLGDQVLIPLNTYTGQFPEMKKKVEKRNRKLIDYDGQRHSFQNLQANANKRKDDVKLTKGREQLEEARRTYEILNTELHDELPALYDSRILFLVTNLQTLFATEQVFHNETAKIYSELEAIVDKLATESQRGS
